In paper PMC11179954 (MedComm, 2024):

Tests used:
[1] = biological target: T1, wild-type human Y1R (NPY1R-WT, hY1R) (Homo sapiens, UniProt P25929); assay: GloSensor cAMP inhibition assay in HEK293 cells; type: cell-based; conditions: wildtype Y1R, Figure 1B
T1 construct: Flag; expressed in transfected cells; host or cells: HEK293
T1 sequence (P25929 1-384): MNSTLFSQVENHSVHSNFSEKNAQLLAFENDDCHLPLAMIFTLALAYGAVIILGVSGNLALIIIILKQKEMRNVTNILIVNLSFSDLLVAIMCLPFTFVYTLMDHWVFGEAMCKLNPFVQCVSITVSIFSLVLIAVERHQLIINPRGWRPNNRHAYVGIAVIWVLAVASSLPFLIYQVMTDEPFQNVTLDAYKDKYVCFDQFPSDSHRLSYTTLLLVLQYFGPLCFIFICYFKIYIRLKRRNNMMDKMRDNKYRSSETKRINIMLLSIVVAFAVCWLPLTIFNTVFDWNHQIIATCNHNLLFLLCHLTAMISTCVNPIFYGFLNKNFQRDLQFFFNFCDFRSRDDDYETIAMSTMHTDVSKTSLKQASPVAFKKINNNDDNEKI
Method: Following a subsequent 1 -hour incubation, ligands, diluted in assay buffer with forskolin, were introduced to the cells. Subsequently, the cells wer e incubated for 30 minutes in a light-free environment at room temperature Fluorescence signals were measured using a Synergy H1 microplate reader (BioTek). GraphPad Prism 8 (GraphPad Software) was used to processing data using the nonlinear regression dos e-response function. Results were represented as the mean ± s.e.m. from three independent experiments . All experiments were repeated at least three times.

wildtype Y2R = biological target: T2, wildtype Y2R (Homo sapiens, UniProt P49146); assay: GloSensor cAMP inhibition assay in HEK293 cells; type: cell-based; conditions: Figure 1C
T2 construct: Flag; expressed in transfected cells; host or cells: HEK293
T2 sequence (P49146 1-381): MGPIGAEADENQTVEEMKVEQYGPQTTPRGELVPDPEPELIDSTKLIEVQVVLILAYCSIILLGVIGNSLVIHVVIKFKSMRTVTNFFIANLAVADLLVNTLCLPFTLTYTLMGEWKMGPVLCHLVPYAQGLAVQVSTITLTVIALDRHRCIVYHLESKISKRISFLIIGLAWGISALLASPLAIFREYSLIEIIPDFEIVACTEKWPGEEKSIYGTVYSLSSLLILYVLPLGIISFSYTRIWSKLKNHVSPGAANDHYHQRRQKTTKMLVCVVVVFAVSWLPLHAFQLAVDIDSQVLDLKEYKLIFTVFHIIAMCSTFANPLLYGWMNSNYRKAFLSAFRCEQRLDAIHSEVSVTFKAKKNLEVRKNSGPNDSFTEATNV
Method: EM density map11, the coordinates were subsequently manual adjustment and rebuilding in COOT 12. Real space refinement was performed in Phenix program 13.
The model statistics were finally validated by using MolProbity 14 in Phenix. The refinement statistics are presented in supplemental information table S1. UCSF Chimera11, Chimera X 15 and PyMOL (https://pymol.org/2/) were used to generate the […]
Cyclic adenosine 3′,5′-monophosphate (cAMP) assay.
To measure the ligand-induced Gi signaling activation potency of wild -type NPYR or mutants, the GloSensor cAMP assay (Promega) was conducted following a previous study. Briefly, HEK293 cells were co -transfected with the GloSensor plasmid and various NPYR constructs or pcDNA3.1 (as a negative control) plasmids using Polyethylenimine Linear (PEI, YEASEN) in 6 -well plates. Following a 4-hour incubation period, the cells were transferred to fresh medium. After 24 hours, they were harvested and suspended in assay buffer ( HBSS with 10 mM HEPES, pH 7.4), supplemented with a 3% v/v dilution of D -Luciferin-Potassium Salt (YEASEN).
Following a subsequent 1 -hour incubation, ligands, diluted in assay buffer with forskolin, were introduced to the cells. Subsequently, the cells wer e incubated for 30 minutes in a light-free environment at room temperature […] signals were measured using a Synergy H1 microplate reader (BioTek). […]

Row | reduced Y1R activation compared to NPY [1] [folds] | Y2R activation compared with NPY (in words) (wildtype Y2R) | Substance
1 | > 50 |  | NPY^13−36: N-terminally truncated NPY
2 | > 50 | slightly reduced Y2R activation | NPY^3−36: N-terminal truncated NPY variant, processed by dipeptidyl peptidase IV
